Read-outs that look alike come from different tables or passages of the source.
How the values were obtained:
human CLDN18.1 = target: T1, human CLDN18.1 (human, UniProt P56856 1-261); assay: FACS on HEK293/hCLDN18.1 cells
T1 construct: whole, on cells; also called hCLDN18.1
Experimental: (§1) Antibodies were assayed for binding affinity by FACS. Test cells include HEK293/hCLDN18.2, HEK293/hCLDN18.1, NUGC4_D8 and Jurkat cells. […] The cell density was adjusted to 10⁶ cells/mL, and 50 μL of the cell suspension was added to each well of a 96-well plate. Antibodies were diluted to different concentrations with FACS buffer, and 50 μL of the antibody dilution was added to each well of the 96-well plate. After 2 h of incubation at 4° C., the plate was washed twice with FACS buffer. […] After 1 h of incubation at 4° C., the plate was washed twice with FACS buffer. The cells were resuspended in fixative solution, and then the fluorescence of the cells was monitored using an FACS instrument (ACEA NovoCyte).

[1] = target: CLDN18.2 of SNU620 cells (methionine to leucine at amino acid 149) (human, UniProt P56856-2 1-261); assay: cell-based or functional assay
human CLDN18.2 [2] = target: human CLDN18.2 (human); assay: cell-based or functional assay
human CLDN18.2 [3] = target: T2, human CLDN18.2 (human); assay: FACS on NUGC4_D8 cells
T2 construct: the HEK293 line was made with a GenScript plasmid; also called hCLDN18.2
Experimental: as §1

[4] = target: T3, human CD3 on Jurkat cells (human, UniProt P07766 23-207); assay: FACS on Jurkat cells (CD3)
T3 construct: whole, on cells; on cells it stands in the whole CD3/TCR complex; also called CD3-expressing cells
T3 sequence (P07766 23-207): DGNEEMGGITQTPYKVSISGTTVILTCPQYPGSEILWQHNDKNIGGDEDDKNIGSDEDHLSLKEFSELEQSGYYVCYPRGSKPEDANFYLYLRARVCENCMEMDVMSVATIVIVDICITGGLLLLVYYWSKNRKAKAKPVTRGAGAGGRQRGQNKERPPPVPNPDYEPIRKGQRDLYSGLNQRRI
Experimental: as §1

[5] = target: T3, human CD3 on Jurkat cells; assay: FACS on Jurkat cells (CD3); remark: listed apart in the source
Experimental: as §1

[6] = target: T3, human CD3 on Jurkat cells; assay: FACS on Jurkat cells
Experimental: as §1

T1 sequence (P56856 whole entry): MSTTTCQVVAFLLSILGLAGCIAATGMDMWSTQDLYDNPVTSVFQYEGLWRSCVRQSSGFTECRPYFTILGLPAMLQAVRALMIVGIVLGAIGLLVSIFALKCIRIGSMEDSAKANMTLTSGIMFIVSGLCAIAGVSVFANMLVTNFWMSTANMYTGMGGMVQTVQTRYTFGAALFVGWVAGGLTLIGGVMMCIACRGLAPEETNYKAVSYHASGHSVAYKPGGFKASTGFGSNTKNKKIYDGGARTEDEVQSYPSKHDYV
Chain of CLDN18.2 of SNU620 cells (methionine to leucine at amino acid 149) (P56856 other isoform, or with tags, fused parts or gaps limits assumed): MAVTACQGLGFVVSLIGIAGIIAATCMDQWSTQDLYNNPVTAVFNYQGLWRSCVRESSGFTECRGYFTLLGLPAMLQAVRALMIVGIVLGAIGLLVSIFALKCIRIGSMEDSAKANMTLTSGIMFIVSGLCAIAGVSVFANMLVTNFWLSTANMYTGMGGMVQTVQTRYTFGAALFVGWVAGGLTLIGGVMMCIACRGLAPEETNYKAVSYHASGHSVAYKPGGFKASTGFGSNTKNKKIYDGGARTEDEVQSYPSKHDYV

Row | Binder | binding result (human CLDN18.1) | TDCC, Titer EC50 (pM), SNU620 [1] [pM] | TDCC, Titer EC50 (pM), NUGC4_D8 (human CLDN18.2 [2]) [pM] | EC50 (human CLDN18.2 [3]) [nM] | binding result [4] | binding result [5] | EC50 [6] [nM]
1 | PR005519 (bispecific antibody, structure 3 (2+1 HCAb-Fc-Fab, CD3 VL-CL at the C-terminus of one HCAb chain; third chain is CD3 VH-CH1); PR001848 / PR004533; LALA) chain 1: EVQLVESGGGLVQPGGSLRLSCAASGFTFSSYWMHWVRQVPGKGLVWVSRINSDGSRTIYADSVKGRFTISRDNAKNTLYLQMNSLRAEDTAVYYCARGEDHDILTGYPIRGQGTTVTVSSASEPKSSDKTHTCPPCPAPEAAGGPSVFLFPPKPKDTLMISRTPEVTCVVVDVSHEDPEVKFNWYVDGVEVHNAKTKPREEQYNSTYRVVSVLTVLHQDWLNGKEYKCKVSNKALPAPIEKTISKAKGQPREPQVCTLPPSREEMTKNQVSLSCAVKGFYPSDIAVEWESNGQPENNYKTTPPVLDSDGSFFLVSKLTVDKSRWQQGNVFSCSVMHEALHNHYTQKSLSLSPGK chain 2: not shown chain 3: EVQLLESGGGLVQPGGSLRLSCAASGFTFSTYAMNWVRQAPGKGLEWVSRIRSKYNNYATYYADSVKDRFTISRDDSKSTLYLQMNSLRAEDTAVYYCVRHGNFGNSYVSWFAYWGQGTLVTVSSASTKGPSVFPLAPSSKSTSGGTAALGCLVKDYFPEPVTVSWNSGALTSGVHTFPAVLQSSGLYSLSSVVTVPSSSLGTQTYICNVNHKPSNTKVDKKVEPKSC | no binding | 70.5 | 32.9 | 13.9 | binds | – | –
2 | PR005076 (bispecific antibody, human IgG1, lambda, L234A L235A, structure 1; CD3 Fab from PR003886, CLDN18.2 VH from PR004536; LALA) EVQLVESGGGLVQPGGSLRLSCAASGFTFSSYWMYWVRQVPGKGLVWVSHINSDGSTTQYADSVKGRFTISRDNAKNMLYLQMNSLRAEDTAVYYCARDFPVLGGSHFDFQHWGQGTLVTVSSGGGGSGGGGSGGGGSEVQLVESGGGLVQPGGSLRLSCAASGFTFSSYWMYWVRQVPGKGLVWVSHINSDGSTTQYADSVKGRFTISRDNAKNMLYLQMNSLRAEDTAVYYCARDFPVLGGSHFDFQHWGQGTLVTVSSASEPKSSDKTHTCPPCPAPEAAGGPSVFLFPPKPKDTLMISRTPEVTCVVVDVSHEDPEVKFNWYVDGVEVHNAKTKPREEQYNSTYRVVSVLTVLHQDWLNGKEYKCKVSNKALPAPIEKTISKAKGQPREPQVCTLPPSREEMTKNQVSLSCAVKGFYPSDIAVEWESNGQPENNYKTTPPVLDSDGSFFLVSKLTVDKSRWQQGNVFSCSVMHEALHNHYTQKSLSLSPGK heavy: not shown light: QAVVTQEPSLTVSPGGTVTLTCRSSTGAVTTSNYANWVQQKPGQAPRGLIGGTNKRAPWTPARFSGSLLGDKAALTLLGAQPEDEAEYFCALWYSNLWVFGGGTKLTVLGQPKAAPSVTLFPPSSEELQANKATLVCLISDFYPGAVTVAWKADSSPVKAGVETTTPSKQSNNKYAASSYLSLTPEQWKSHRSYSCQVTHEGSTVEKTVAPTECS | – | – | 102 | – | – | binds | –
3 | PR005518 (bispecific antibody, structure 2 (2+1 HCAb-Fc-Fab, CD3 VH-CH1 at the C-terminus of one HCAb chain); PR001848 / PR004533; LALA) chain 1: EVQLVESGGGLVQPGGSLRLSCAASGFTFSSYWMHWVRQVPGKGLVWVSRINSDGSRTIYADSVKGRFTISRDNAKNTLYLQMNSLRAEDTAVYYCARGEDHDILTGYPIRGQGTTVTVSSASEPKSSDKTHTCPPCPAPEAAGGPSVFLFPPKPKDTLMISRTPEVTCVVVDVSHEDPEVKFNWYVDGVEVHNAKTKPREEQYNSTYRVVSVLTVLHQDWLNGKEYKCKVSNKALPAPIEKTISKAKGQPREPQVCTLPPSREEMTKNQVSLSCAVKGFYPSDIAVEWESNGQPENNYKTTPPVLDSDGSFFLVSKLTVDKSRWQQGNVFSCSVMHEALHNHYTQKSLSLSPGK chain 2: not shown light: QAVVTQEPSLTVSPGGTVTLTCRSSTGAVTTSNYANWVQQKPGQAPRGLIGGTNKRAPWTPARFSGSLLGDKAALTLLGAQPEDEAEYFCALWYSNLWVFGGGTKLTVLGQPKAAPSVTLFPPSSEELQANKATLVCLISDFYPGAVTVAWKADSSPVKAGVETTTPSKQSNNKYAASSYLSLTPEQWKSHRSYSCQVTHEGSTVEKTVAPTECS | no binding | – | 30.6 | 20.5 | binds | – | –
4 | PR005525 (bispecific antibody, human IgG1, lambda, L234A L235A, structure 7 (3+1 Fab-Fc-VH-VH-VH); PR003886 / PR004533; LALA) EVQLVESGGGLVQPGGSLRLSCAASGFTFSSYWMHWVRQVPGKGLVWVSRINSDGSRTIYADSVKGRFTISRDNAKNTLYLQMNSLRAEDTAVYYCARGEDHDILTGYPIRGQGTTVTVSSGGGGSGGGGSGGGGSEVQLVESGGGLVQPGGSLRLSCAASGFTFSSYWMHWVRQVPGKGLVWVSRINSDGSRTIYADSVKGRFTISRDNAKNTLYLQMNSLRAEDTAVYYCARGEDHDILTGYPIRGQGTTVTVSSGGGGSGGGGSGGGGSEVQLVESGGGLVQPGGSLRLSCAASGFTFSSYWMHWVRQVPGKGLVWVSRINSDGSRTIYADSVKGRFTISRDNAKNTLYLQMNSLRAEDTAVYYCARGEDHDILTGYPIRGQGTTVTVSSASEPKSSDKTHTCPPCPAPEAAGGPSVFLFPPKPKDTLMISRTPEVTCVVVDVSHEDPEVKFNWYVDGVEVHNAKTKPREEQYNSTYRVVSVLTVLHQDWLNGKEYKCKVSNKALPAPIEKTISKAKGQPREPQVCTLPPSREEMTKNQVSLSCAVKGFYPSDIAVEWESNGQPENNYKTTPPVLDSDGSFFLVSKLTVDKSRWQQGNVFSCSVMHEALHNHYTQKSLSLSPGK heavy: not shown light: QAVVTQEPSLTVSPGGTVTLTCRSSTGAVTTSNYANWVQQKPGQAPRGLIGGTNKRAPWTPARFSGSLLGDKAALTLLGAQPEDEAEYFCALWYSNLWVFGGGTKLTVLGQPKAAPSVTLFPPSSEELQANKATLVCLISDFYPGAVTVAWKADSSPVKAGVETTTPSKQSNNKYAASSYLSLTPEQWKSHRSYSCQVTHEGSTVEKTVAPTECS | no binding | – | 28.9 | 12.6 | – | – | 26.8

The remaining binders from weak to strong by EC50 (human CLDN18.2 [3]), led by results:

Row | binding result (human CLDN18.1) | TDCC, Titer EC50 (pM), SNU620 [1] [pM] | TDCC, Titer EC50 (pM), NUGC4_D8 (human CLDN18.2 [2]) [pM] | EC50 (human CLDN18.2 [3]) [nM] | binding result [4] | binding result [5] | EC50 [6] [nM] | Binder
5 | no binding | 41 | 73.9 | 13.9 | binds | – | – | PR005521 (bispecific antibody, third chain is CD3 VH-CH1; PR001848 / PR004533; LALA) chain 1: EVQLVESGGGLVQPGGSLRLSCAASGFTFSSYWMHWVRQVPGKGLVWVSRINSDGSRTIYADSVKGRFTISRDNAKNTLYLQMNSLRAEDTAVYYCARGEDHDILTGYPIRGQGTTVTVSSGGGGSGGGGSGGGGSEVQLVESGGGLVQPGGSLRLSCAASGFTFSSYWMHWVRQVPGKGLVWVSRINSDGSRTIYADSVKGRFTISRDNAKNTLYLQMNSLRAEDTAVYYCARGEDHDILTGYPIRGQGTTVTVSSASEPKSSDKTHTCPPCPAPEAAGGPSVFLFPPKPKDTLMISRTPEVTCVVVDVSHEDPEVKFNWYVDGVEVHNAKTKPREEQYNSTYRVVSVLTVLHQDWLNGKEYKCKVSNKALPAPIEKTISKAKGQPREPQVCTLPPSREEMTKNQVSLSCAVKGFYPSDIAVEWESNGQPENNYKTTPPVLDSDGSFFLVSKLTVDKSRWQQGNVFSCSVMHEALHNHYTQKSLSLSPGK chain 2: not shown chain 3: EVQLLESGGGLVQPGGSLRLSCAASGFTFSTYAMNWVRQAPGKGLEWVSRIRSKYNNYATYYADSVKDRFTISRDDSKSTLYLQMNSLRAEDTAVYYCVRHGNFGNSYVSWFAYWGQGTLVTVSSASTKGPSVFPLAPSSKSTSGGTAALGCLVKDYFPEPVTVSWNSGALTSGVHTFPAVLQSSGLYSLSSVVTVPSSSLGTQTYICNVNHKPSNTKVDKKVEPKSC
6 | no binding | – | 186 | 13.9 | binds | – | – | PR005522 (bispecific antibody, human IgG1, lambda, L234A L235A, PR001848 / PR004533; LALA) EVQLVESGGGLVQPGGSLRLSCAASGFTFSSYWMHWVRQVPGKGLVWVSRINSDGSRTIYADSVKGRFTISRDNAKNTLYLQMNSLRAEDTAVYYCARGEDHDILTGYPIRGQGTTVTVSSGGGGSGGGGSGGGGSEVQLVESGGGLVQPGGSLRLSCAASGFTFSSYWMHWVRQVPGKGLVWVSRINSDGSRTIYADSVKGRFTISRDNAKNTLYLQMNSLRAEDTAVYYCARGEDHDILTGYPIRGQGTTVTVSSASEPKSSDKTHTCPPCPAPEAAGGPSVFLFPPKPKDTLMISRTPEVTCVVVDVSHEDPEVKFNWYVDGVEVHNAKTKPREEQYNSTYRVVSVLTVLHQDWLNGKEYKCKVSNKALPAPIEKTISKAKGQPREPQVCTLPPSREEMTKNQVSLSCAVKGFYPSDIAVEWESNGQPENNYKTTPPVLDSDGSFFLVSKLTVDKSRWQQGNVFSCSVMHEALHNHYTQKSLSLSPGK heavy: not shown light: QAVVTQEPSLTVSPGGTVTLTCRSSTGAVTTSNYANWVQQKPGQAPRGLIGGTNKRAPWTPARFSGSLLGDKAALTLLGAQPEDEAEYFCALWYSNLWVFGGGTKLTVLGQPKAAPSVTLFPPSSEELQANKATLVCLISDFYPGAVTVAWKADSSPVKAGVETTTPSKQSNNKYAASSYLSLTPEQWKSHRSYSCQVTHEGSTVEKTVAPTECS
7 | no binding | – | 11 | 12.6 | binds | – | – | PR005354 (bispecific antibody, human IgG1, lambda, L234A L235A, structure 1; CD3 Fab from PR001848, CLDN18.2 VH from PR004533; LALA) EVQLVESGGGLVQPGGSLRLSCAASGFTFSSYWMHWVRQVPGKGLVWVSRINSDGSRTIYADSVKGRFTISRDNAKNTLYLQMNSLRAEDTAVYYCARGEDHDILTGYPIRGQGTTVTVSSGGGGSGGGGSGGGGSEVQLVESGGGLVQPGGSLRLSCAASGFTFSSYWMHWVRQVPGKGLVWVSRINSDGSRTIYADSVKGRFTISRDNAKNTLYLQMNSLRAEDTAVYYCARGEDHDILTGYPIRGQGTTVTVSSASEPKSSDKTHTCPPCPAPEAAGGPSVFLFPPKPKDTLMISRTPEVTCVVVDVSHEDPEVKFNWYVDGVEVHNAKTKPREEQYNSTYRVVSVLTVLHQDWLNGKEYKCKVSNKALPAPIEKTISKAKGQPREPQVCTLPPSREEMTKNQVSLSCAVKGFYPSDIAVEWESNGQPENNYKTTPPVLDSDGSFFLVSKLTVDKSRWQQGNVFSCSVMHEALHNHYTQKSLSLSPGK heavy: not shown light: QAVVTQEPSLTVSPGGTVTLTCRSSTGAVTTSNYANWVQQKPGQAPRGLIGGTNKRAPWTPARFSGSLLGDKAALTLLGAQPEDEAEYFCALWYSNLWVFGGGTKLTVLGQPKAAPSVTLFPPSSEELQANKATLVCLISDFYPGAVTVAWKADSSPVKAGVETTTPSKQSNNKYAASSYLSLTPEQWKSHRSYSCQVTHEGSTVEKTVAPTECS

From patent US20250340631A1 (HARBOUR BIOMED SHANGHAI, published 2025)
